# Laboratory results from patent publication US20080248043A1.
# Columns and labels:
# [1] = target: antigen of Table 4 (native or denatured; not named); assay: native conditions; dilution 1:5
# [2] = target: antigen of Table 4 (native or denatured; not named); assay: denatured conditions; 10 µg/ml
# [3] = target: antigen of Table 4 (native or denatured; not named); assay: native conditions; 10 µg/ml
substance,measurement,setting,value
Cont,OD (read-out not given),[1],0.052
same,OD (read-out not given),[2],0.146
same,OD (read-out not given),[3],0.738
